{"source": "paper PMC5727500", "about": "“Paper-based MoS2 nanosheet-mediated FRET aptasensor for rapid malaria diagnosis”", "binders": {"B1": {"name": "pLDH aptamer (ssDNA)", "DNA": "GTTCGATTGGATTGTGCCGGAAGTGCTGGCTCGAAC"}}, "molecular_target": "Plasmodium lactate dehydrogenase (pLDH) (Plasmodium falciparum, UniProt Q27743 1-316)", "sequence (Q27743 whole entry)": "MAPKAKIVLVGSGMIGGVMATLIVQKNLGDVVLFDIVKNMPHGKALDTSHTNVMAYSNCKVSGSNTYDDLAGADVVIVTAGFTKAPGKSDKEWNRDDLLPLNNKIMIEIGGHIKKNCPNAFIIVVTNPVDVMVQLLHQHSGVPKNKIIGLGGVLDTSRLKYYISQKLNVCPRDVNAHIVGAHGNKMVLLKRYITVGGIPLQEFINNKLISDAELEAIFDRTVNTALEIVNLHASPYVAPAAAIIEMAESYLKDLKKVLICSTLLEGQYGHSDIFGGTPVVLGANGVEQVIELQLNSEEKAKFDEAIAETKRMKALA", "assay": "FRET fluorescence recovery from MoS2 nanosheets on printer paper; 1 uM pLDH; 100 nM aptamer, 25 ug/mL MoS2 dried on printer paper; no recovery on lens, coffee filter, Whatman or Advantec paper; Aptamer buffer 20 mM Tris-HCl pH 8, 50 mM NaCl, 5 mM KCl, 5 mM MgCl2; pLDH in water, other proteins in 1x PBS; readings over 30 min; temperature not stated", "details": "protein: recombinant; chain copies: 4; label: 3' FAM"}
{"binder": "B1", "values": [{"measurement": "binding result", "value": "binds"}]}
